Experimental data as given in US20180037641A1 (WASHINGTON UNIVERSITY, published 2018).

How the values were obtained:
[1] = molecular target: T1, recombinant human tau, longest isoform hTau40 (441 aa) (human, UniProt P10636-8 1-441); test: SPR (BIAcore 2000), tau immobilised on CM-5 chip, antibody injected 0.11-7.5 µg/ml, 1:1 Langmuir global fit
T1 construct: range 1-441
Protocol: Prior to testing in vivo, the binding affinities and epitopes of the antibodies, which are all lgG2b isotype, were determined. Human and mouse tau was immobilized on a sensor chip CMS for surface plasmon resonance (SPR) (FIGS. 30A-30G). […] The association (Kₐ) and dissociation (Kd) was calculated by using BIAevaluation software (Biacore AB) selecting Fit kinetics simultaneous Kd/Kₐ (Global fitting) with 1:1 (Langmuir) interaction model. […] The epitope of HJ9.3 was mapped to the repeat domain (RD) region, between amino acids 306-320. […] It binds to human tau (FIG. 30E) but not to mouse tau (FIG. 30F). […] The epitope of HJ8.5 was mapped to amino acids 25-30. All 3 anti-tau antibodies strongly recognized human tau fibrils on SPR (FIG. 31). Because the fibrils have multiple identical epitopes, the association and dissociation rates could not be directly calculate.
(§1) Surface plasmon resonance Surface plasmon resonance experiments were performed on BIAcore 2000 surface plasmon resonance instrument (GE Healthcare-BIAcore). Biacore sensor chip CM-5 was activated by using EDC (1-ethyl-3-(3-dimethylaminopropyl)-carbodiimide) and NHS (N-hydroxysuccinimide) in a 1:1 ratio for 7 minutes.

[2] = molecular target: T2, endogenous murine tau (mouse brain and ISF) (mouse, UniProt P10637-2 1-430, limits assumed); test: immunoblot of RAB soluble brain fractions of KO, WT and P301S mice
T2 construct: Mixture of isoforms from tissue; also called mouse tau (Western blot, immunostaining, ISF immunoprecipitation)
T2 sequence (P10637 other isoform, or with tags, fused parts or gaps limits assumed): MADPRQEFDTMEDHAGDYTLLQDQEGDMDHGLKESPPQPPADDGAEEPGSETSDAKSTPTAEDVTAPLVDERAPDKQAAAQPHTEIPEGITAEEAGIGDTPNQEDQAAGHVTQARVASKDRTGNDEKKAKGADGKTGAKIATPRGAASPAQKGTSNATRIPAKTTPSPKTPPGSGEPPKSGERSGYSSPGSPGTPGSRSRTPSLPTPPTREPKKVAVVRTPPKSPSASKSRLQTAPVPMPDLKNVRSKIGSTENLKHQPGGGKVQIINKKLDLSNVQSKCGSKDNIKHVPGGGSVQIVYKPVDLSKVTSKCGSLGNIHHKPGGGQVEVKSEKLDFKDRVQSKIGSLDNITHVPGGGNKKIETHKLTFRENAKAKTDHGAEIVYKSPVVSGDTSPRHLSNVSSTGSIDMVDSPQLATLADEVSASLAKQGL

[3] = molecular target: T1, recombinant human tau, longest isoform …; test: SPR (Biacore), tau immobilised on CM-5 chip, antibody injected 0.78-400 nM
Protocol: To characterize the binding affinity of the HJ8 and HJ9 series antibodies to mouse tau and human tau, Biacore's SPR technology was used. Biacore sensor chip CM-5 (Carboxymethylated dextran matrix) was activated by using EDC (1-ethyl-3-(3-dimethylaminopropyl)-carbodiimid) and NHS (N-hydroxysuccinimide) in 1:1 ratio. 2). Then ligand, either mouse tau or human Tau, were immobilized (20 ug/ml, in 10 mM sodium acetate pH 3.5) on Biacore CM-5 sensor chip at a flow rate of 5 μI/min. The remaining unbound area on the Biacore CM-5 sensor chip was deactivated by passage of 1 M ethanolamine pH 8.5.
Following preparation of the sensor chip surface, analytes (e.g. antibody) were injected with different concentrations (0.78 nM-400 nM) in filtered, degassed 0.01 M Hepes buffer, 0.15 M NaCl, 0.005% surfactant P20, pH 7.4 at a flow rate of 10 μI/min. All the samples were run in duplicates. After each cycle/run with single antibody concentration, the surface of the chip was regenerated by using 10 mM glycine pH 1.7, to remove the bound antibody/analyte, leaving the monomer/fibrils/ligand attached to the surface.

[4] = molecular target: recombinant mouse tau, longest isoform mTau40 (432 aa) (mouse, UniProt P10637-2 1-430, limits assumed); test: SPR (Biacore), mouse tau immobilised, antibody injected
Chain of recombinant mouse tau, longest isoform mTau40 (432 aa) (P10637 other isoform, or with tags, fused parts or gaps limits assumed): as above
Protocol: FIGS. 30A, 30B, 30C, 30D, 30E, 30F and 30G. Characterization of anti-tau antibodies by surface plasmon resonance (SPR) and Immunoblotting. The figure depicts SPR sensorgrams showing the binding of each anti-tau antibody towards immobilized recombinant human tau (longest isoforms hTau40, 441 aa) and immobilized mouse tau (longest isoforms mTau40, 432 aa). Each antibody was run with various concentrations (0.11, 0.23, 0.46, 0.90, […], 3.7, 7.5 μg/ml) and plots are shown in the corresponding color. (FIG. 30A) SPR sensorgrams of HJ9.3 antibody binding to immobilized human tau and immobilized mouse tau (FIG. 30B). (FIG. 30C) SPR sensorgrams of HJ9.4 antibody binding to immobilized human tau and immobilized mouse tau (FIG. 30D). SPR sensorgrams of HJ8.5 antibody binding to immobilized (FIG. 30E) human and (FIG. 30F) mouse tau. (FIG. 30G) RAB soluble fractions of 3 month old tau knockout (KO), 3 month old wild-type (WT), 3 month old P301 S (3 mo) and 9 month old P301 S (9 mo) mice were analyzed by immunoblot by using the indicated anti-tau antibodies.
as §1, with “minutes. […]” for “minutes.”

T1 sequence (P10636 other isoform, or with tags, fused parts or gaps limits assumed): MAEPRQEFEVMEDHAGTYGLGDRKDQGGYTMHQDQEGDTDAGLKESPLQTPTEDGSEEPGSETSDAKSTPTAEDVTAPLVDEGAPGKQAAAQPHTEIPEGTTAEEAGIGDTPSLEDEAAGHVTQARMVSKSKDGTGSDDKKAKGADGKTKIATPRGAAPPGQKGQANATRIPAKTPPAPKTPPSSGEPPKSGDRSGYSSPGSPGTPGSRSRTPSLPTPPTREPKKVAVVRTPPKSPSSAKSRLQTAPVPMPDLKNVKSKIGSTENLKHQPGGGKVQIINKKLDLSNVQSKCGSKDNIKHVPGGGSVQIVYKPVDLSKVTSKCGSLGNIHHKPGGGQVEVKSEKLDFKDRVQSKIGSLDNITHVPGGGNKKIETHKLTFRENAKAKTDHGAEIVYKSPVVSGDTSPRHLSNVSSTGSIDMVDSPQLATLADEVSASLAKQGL

Kd [1]: 0.336 pM
koff [1]: 4.34e-08 s⁻¹
kon [1]: 130000 M⁻¹ s⁻¹
binding result [2]: no binding
Kd [3]: 0.336 pM
koff [3]: 4.34e-08 s⁻¹
kon [3]: 130000 M⁻¹ s⁻¹
binding result [4]: no binding (tested: 7.5 µg/ml)
B1: HJ8.5 (antibody, V domains shown)
VH: EVKVEESGGGLVQPGGSMKLSCVVSGFTFSNYWVNWVRQSPEKGLEWVAQIRLKSDNYATHYEESVKGRFTISRDDSKSSVYLQMNNLRAEDSGIYYCTNWEDYWGQGTTLTVSS
VL: DIVLTQSPASLAVSLGQRATISCRASQSVSTSRYSYIHWYQQKPGQPPKLLIKYASNLESGVPARFSGSGSGTDFTLNIHPLEEEDAATYYCHHSWEIPLTFGAGTKLELK
notes: also called HJ8.5B (biotinylated)
